Biological target: BACE1 endogenous to primary cortical neurons from E16.5 CD1 mice (mouse, UniProt P56818 46-501)
Assay: cell-based or functional assay

BACE1 endogenous to primary cortical neurons from E16.5 CD1 mice, sequence (P56818 46-501): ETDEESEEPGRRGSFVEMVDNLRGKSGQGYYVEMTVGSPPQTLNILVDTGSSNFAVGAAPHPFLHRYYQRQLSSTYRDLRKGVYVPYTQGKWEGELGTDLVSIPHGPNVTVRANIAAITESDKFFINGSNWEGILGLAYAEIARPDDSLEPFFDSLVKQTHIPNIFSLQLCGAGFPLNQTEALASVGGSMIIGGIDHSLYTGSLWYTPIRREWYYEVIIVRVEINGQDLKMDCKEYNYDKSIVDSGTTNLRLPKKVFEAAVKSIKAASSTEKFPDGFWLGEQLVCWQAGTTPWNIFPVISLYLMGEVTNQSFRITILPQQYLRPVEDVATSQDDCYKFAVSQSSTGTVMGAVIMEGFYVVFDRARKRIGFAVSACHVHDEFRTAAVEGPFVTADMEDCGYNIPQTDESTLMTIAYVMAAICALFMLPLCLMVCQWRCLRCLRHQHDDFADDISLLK

Binder	max % inhibition, Abeta x-40 in mouse cortical neurons
5930 (antibody, V domains shown) VH: QVQLVQSGAEVKKPGSSVKVSCKASGGTLSGYAISWVRQAPGQGLEWMGNIIPGFGTANYAQKSQGRVTITADESTSTAYMELSSLRSEDTAVYYCARSGGTRYGMLDVWGQGTMVTVSS VL: EIVMTQSPATLSVSPGERATLSCRASQSVGSNLAWYQQKPGQAPRLLIYGASTRATGIPARFSGSGSGTEFTLTISSLQSEDFAVYYCQQLYTWPPRTFGGGTKVEIK	74%
5988 (antibody, V domains shown) VH: QVQLVQSGAEVKKPGSSVKVSCKASGGTLSGYAISWVRQAPGQGLEWMGNIIPGFGTANYAQKSQGRVTITADESTSTAYMELSSLRSEDTAVYYCARSGGTRYGMLDVWGQGTMVTVSS VL: GIVMTQSPATLSVSPGERATLSCRASQSVGSNLAWYQQKPGQAPRLLIYGASTRATGIPARFSGSGSGTEFTLTISSLQSEDFAVYYCQQLYTWPPRTFGGGTKVEIK	75%
6271 (antibody, V domains shown) VH: QVQLVQSGAEVKKPGSSVKVSCKASGGTISGYGISWVRQAPGQGLEWMGNIIPGFGTANYAQKFQGRVTITADESTSTAYMELSSLRSEDTAVYYCARSGGTKYGMLDVWGQGTMVTVSS VL: EIVMTQSPATLSVSPGERATLSCRASQSVSSNLAWYQQKPGQAPRLLIYGASTRATGIPARFSGSGSGTEFTLTISSLQSEDFAVYYCQQLILWPPRTFGGGTKVEIK	83%
5982 (antibody, V domains shown) VH: QLQLQESGPGLVKPSETLSLTCTVSGGSISSSSYYWGWIRQPPGKGLEWIGNIYYSGSTYYNPSLKSRVTISVDTSKNQFSLKLSSVTAADTAVYYCARLGHGYSYFDLWGRGTLVTVSS VL: EIVLTQSPATLSLSPGERATLSCRASQSVSSYLAWFQQKPGQAPRLLIYDASNRATGIPARFSGSGSGTDFTLTISSLEPEDFAVYYCQQVYVWPPRTFGGGTKVEIK	71%
5986 (antibody, V domains shown) VH: QLQLQESGPGLVKPSETLSLTCTVSGGSISSSSYYWGWIRQPPGKGLEWIGQIYYSGSTFYNPSLKSRVTISVDTSKNQFSLKLSSVTAADTAVYYCARLGHGYSYFDLWGRGTLVTVSS VL: EIVLTQSPATLSLSPGERATLSCRASQSVSSYLAWFQQKPGQAPRLLIYDASNRATGIPARFSGSGSGTDFTLTISSLEPEDFAVYYCQQVYVWPPRTFGGGTKVEIK	67%
5932 (antibody, V domains shown) VH: QLQLQESGPGLVKPSETLSLTCTVSGGSISRGSYYWGWIRQPPGKGLEWIGMIYYSGSTWYNPSLKSRVTISVDTSKNQFSLKLSSVTAADTAVYYCARVGHGISYFDLWGRGTLVTVSS VL: EIVLTQSPATLSLSPGERATLSCRASQSVSSYLAWYQQKPGQAPRLLIYDASKRATGIPARFSGSGSGTDFTLTISSLEPEDFAVYYCQQVYTWPPRTFGGGTKVEIK	57%
6273 (antibody, V domains shown) VH: QVQLVQSGAEVKKPGSSVKVSCKASGGTFSGYGISWVRQAPGQGLEWMGNIIPGFGTANYAQKFQGRVTITADESTSTAYMELSSLRSEDTAVYYCARSGGTKYGMLDVWGQGTMVTVSS VL: EIVMTQSPATLSVSPGERATLSCRASQSVSSNIAWYQQKPGQAPRLLIYGASTRATGIPARFSGSGSGTEFTLTISSLQSEDFAVYYCQQLLLWPPRTFGGGTKVEIK	82%
5933 (antibody, V domains shown) VH: QLQLQESGPGLVKPSETLSLTCTVSGGSISRGSYYWGWIRQPPGKGLEWIGMIYYSGSTWYNPSLKSRVTISVDTSKNQFSLKLSSVTAADTAVYYCARVGHGVSYFDLWGRGTLVTVSS VL: EIVLTQSPATLSLSPGERATLSCRASQSVSSYLAWYQQKPGQAPRLLIYGASKRATGIPARFSGSGSGTDFTLTISSLEPEDFAVYYCQQVYTWPPRTFGGGTKVEIK	67%
6274 (antibody, V domains shown) VH: QVQLVQSGAEVKKPGSSVKVSCKASGGTFSGYGISWVRQAPGQGLEWMGNIIPGFGTANYAQKFQGRVTITADESTSTAYMELSSLRSEDTAVYYCARSGGTKYGMLDVWGQGTMVTVSS VL: EIVMTQSPATLSVSPGERATLSCRASQSVSSHLAWYQQKPGQAPRLLIYGASTRATGIPARFSGSGSGTEFTLTISSLQSEDFAVYYCQQLILWPPRTFGGGTKVEIK	85%
5990 (antibody, V domains shown) VH: QLQLQESGPGLVKPSETLSLTCTVSGGSISWSSYYWSWIRQPPGKGLEWIGSIYRSGRTYYNPSLKSRVTISVDTSKNQFSLKLSSVTAADTAVYYCARVGHGINYFDLWGRGTLVTVSS VL: EIVLTQSPATLSLSPGERATLSCRASRSVNSYLAWYQQKPGQAPRLLIYDASKRATGIPARFSGSGSGTDFTLTISSLEPEDFAVYYCQQVYTWPPRTFGGGTKVEIK	61%
6270 (antibody, V domains shown) VH: QVQLVQSGAEVKKPGSSVKVSCKASGGTFSGYGISWVRQAPGQGLEWMGNIIPGFGTANYAQKFQGRVTITADESTSTAYMELSSLRSEDTAVYYCARSGGTKYGMLDVWGQGTMVTVSS VL: EIVMTQSPATLSVSPGERATLSCRASQSVSSNLAWYQQKPGQAPRLLIYGASTRATGIPARFSGSGSGTEFTLTISSLQSEDFAVYYCQQLLLWPPRTFGGGTKVEIK	85%
5985 (antibody, V domains shown) VH: QLQLQESGPGLVKPSETLSLTCTVSGGSISSSSYYWGWIRQPPGKGLEWIGNIYYSGSTYYNPSLKSRVTISVDTSKNQFSLKLSSVTAADTAVYYCARLGHGYNYFDLWGRGTLVTVSS VL: EIVLTQSPATLSLSPGERATLSCRASQSVSSYLAWFQQKPGQAPRLLIYDASNRATGIPARFSGSGSGTDFTLTISSLEPEDFAVYYCQQVYVWPPRTFGGGTKVEIK	73%
5984 (antibody, V domains shown) VH: QLQLQESGPGLVKPSETLSLTCTVSGGSISSSSYYWGWIRQPPGKGLEWIGNIYYSGSTYYNPSLKGRVTISVDTSKNQFSLKLSSVTAADTAVYYCARLGHGYNYFDLWGRGTLVTVSS VL: EIVLTQSPATLSLSPGERATLSCRASQSVSSYLAWFQQKPGQAPRLLIYDASNRATGIPARFSGSGSGTDFTLTISSLEPEDFAVYYCQQVYVWPPRTFGGGTKVEIK	70%
6275 (antibody, V domains shown) VH: QVQLVQSGAEVKKPGSSVKVSCKASGGTFRGYAISWVRQAPGQGLEWMGNIIPGFGTANYAQKFQGRVTITADESTSTAYMELSSLRSEDTAVYYCARSGGTKYGMLDVWGQGTMVTVSS VL: EIVMTQSPATLSVSPGERATLSCRASQSVSSNLAWYQQKPGQAPRLLIYGASTRATGIPARFSGSGSGTEFTLTISSLQSEDFAVYYCQQLFLWPPRTFGGGTKVEIK	71%
5931 (antibody, V domains shown) VH: QLQLQESGPGLVKPSETLSLTCTVSGGSISWSSYYWSWIRQPPGKGLEWIGSIYRSGRTYYNPSLKGRVTISVDTSKNQFSLKLSSVTAADTAVYYCARVGHGINYFDLWGRGTLVTVSS VL: EIVLTQSPATLSLSPGERATLSCRASQSVSSYLAWYQQKPGQAPRLLIYDASKRATGIPARFSGSGSGTDFTLTISSLEPEDFAVYYCQQVYTWPPRTFGGGTKVEIK	69%
6279 (antibody, V domains shown) VH: QVQLVQSGAEVKKPGSSVKVSCKASGGTFRGYAISWVRQAPGQGLEWMGNIIPGFGTANYAQKFQGRVTITADESTSTAYMELSSLRSEDTAVYYCARSGGTKYGMLDVWGQGTMVTVSS VL: EIVMTQSPATLSVSPGERATLSCRASQSVSSNLAWYQQKPGQAPRLLIYGASTRATGIPARFSGSGSGTEFTLTISSLQSEDFAVYYCQQLLLWPPRTFGGGTKVEIK	71%
5983 (antibody, V domains shown) VH: QLQLQESGPGLVKPSETLSLTCTVSGGSISSSSYYWGWIRQPPGKGLEWIGNIYYSGSTYYNPSLRSRVTISVDTSKNQFFLKLSSVTAADTAVYYCARLGHGYNYFDLWGRGTLVTVSS VL: EIVLTQSPATLSLSPGERATLSCRASQSVSSYLAWFQQKPGQAPRLLIYDASNRATGIPARFSGSGSGTDFTLTISSLEPEDFAVYYCQQVYVWPPRTFGGGTKVEIK	72%
6276 (antibody, V domains shown) VH: QVQLVQSGAEVKKPGSSVKVSCKASGGTFRGYAISWVRQAPGQGLEWMGNIIPGLSTANYAQKFQGRVTITADESTSTAYMELSSLRSEDTAVYYCARSGGTKYGMLDVWGQGTMVTVSS VL: EIVMTQSPATLSVSPGERATLSCRASQSVSSNLAWYQQKPGQAPRLLIYGASTRATGIPARFSGSGSGTEFTLTISSLQSEDFAVYYCQQLILWPPRTFGGGTKVEIK	81%
5987 (antibody, V domains shown) VH: QVQLVQSGAEVKKPGSSVKVSCKASGGTLSGYAISWVRQAPGQGLEWMGNIIPGFGTANYAQKSQGRVTITADESTSTAYMELSSLRSEDTAVYYCARSGGTRYGMLDVWGQGTMVTVSS VL: EIVMTQSPATLSVSPGERATLSCRASQSVSSNLAWYQQKPGQAPRLLIYGASTRATGIPARFSGSGSGTEFTLTISSLQSEDFAVYYCQQLFLWPPRTFGGGTKVEIK	69%
6280 (antibody, V domains shown) VH: QLQLQESGPGLVKPSETLSLTCTVSGGSTSSSSYYWGWIRQPPGKGLEWIGSIYRSGSTYYNPSFKSRVTISVDTSKNQFSLKLSSVTAADTAVYYCARVGHGISYFDLWGRGTLVTVSS VL: EIVLTQSPATLSLSPGERATLSCRASQSVSSYLAWYQQKPGQAPRLLIYDASNRATGIPARFSGSGSGTDFTLTISSLEPEDFAVYYCQQSLTWPPRTFGGGTKVEIK	65%
6272 (antibody, V domains shown) VH: QVQLVQSGAEVKKPGSSVKVSCKASGGTFSGYGISWVRQAPGQGLEWMGNIIPGFGTANYAQKFQGRVTITADESTSTAYMELSSLRSEDTAVYYCARSGGTKYGMLDVWGQGTMVTVSS VL: EIVMTQSPATLSVSPGERATLSCRASQSVSSNLAWYQQKPGQAPRLLIYGASTRATGIPARFSGSGSGTEFTLTISSLQSEDFAVYYCQQLFLWPPRTFGGGTKVEIK	82%
